Measurements reported in patent US20250084178A1 (ARCUS BIOSCIENCES, published 2025).

Legend:
[1] = molecular target: T1, human CD39 expressed on the cell surface (human, UniProt P49961 1-510); assay: cell-based or functional assay
T1 sequence: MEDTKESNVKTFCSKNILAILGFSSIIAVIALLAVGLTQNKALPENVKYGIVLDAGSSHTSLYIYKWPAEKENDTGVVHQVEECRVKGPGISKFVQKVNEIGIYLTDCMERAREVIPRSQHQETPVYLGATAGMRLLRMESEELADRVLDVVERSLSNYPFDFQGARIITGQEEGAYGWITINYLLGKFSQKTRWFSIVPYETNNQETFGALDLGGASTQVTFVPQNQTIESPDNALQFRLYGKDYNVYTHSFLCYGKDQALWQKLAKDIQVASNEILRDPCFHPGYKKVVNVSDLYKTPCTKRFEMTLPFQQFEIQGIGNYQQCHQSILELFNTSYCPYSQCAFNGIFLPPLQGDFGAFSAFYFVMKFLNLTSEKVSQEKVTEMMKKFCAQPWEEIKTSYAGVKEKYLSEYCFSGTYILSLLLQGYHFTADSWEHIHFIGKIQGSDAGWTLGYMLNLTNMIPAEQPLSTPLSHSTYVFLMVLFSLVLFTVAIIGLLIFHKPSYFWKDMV

[2] = molecular target: T1, human CD39 expressed on the cell surface; assay: cell-based or functional assay; remark: listed apart in the source
[3] = molecular target: T1, human CD39 expressed on the cell surface; assay: cell-based or functional assay; remark: listed apart in the source
[4] = molecular target: T1, human CD39 expressed on the cell surface; assay: cell-based or functional assay; remark: listed apart in the source
[5] = molecular target: T1, human CD39 expressed on the cell surface; assay: cell-based or functional assay; remark: listed apart in the source
[6] = molecular target: T1, human CD39 expressed on the cell surface; assay: FACS on CHO-K1 cells overexpressing human CD39
[7] = molecular target: T2, cynomolgus monkey CD39 expressed on HEK-293 cells (cynomolgus monkey, UniProt P49961 5-510 (human entry)); assay: FACS on HEK293 cells overexpressing cynomolgus CD39
T2 construct: also called Cynomolgus Monkey CD39-HEK293
T2 chain: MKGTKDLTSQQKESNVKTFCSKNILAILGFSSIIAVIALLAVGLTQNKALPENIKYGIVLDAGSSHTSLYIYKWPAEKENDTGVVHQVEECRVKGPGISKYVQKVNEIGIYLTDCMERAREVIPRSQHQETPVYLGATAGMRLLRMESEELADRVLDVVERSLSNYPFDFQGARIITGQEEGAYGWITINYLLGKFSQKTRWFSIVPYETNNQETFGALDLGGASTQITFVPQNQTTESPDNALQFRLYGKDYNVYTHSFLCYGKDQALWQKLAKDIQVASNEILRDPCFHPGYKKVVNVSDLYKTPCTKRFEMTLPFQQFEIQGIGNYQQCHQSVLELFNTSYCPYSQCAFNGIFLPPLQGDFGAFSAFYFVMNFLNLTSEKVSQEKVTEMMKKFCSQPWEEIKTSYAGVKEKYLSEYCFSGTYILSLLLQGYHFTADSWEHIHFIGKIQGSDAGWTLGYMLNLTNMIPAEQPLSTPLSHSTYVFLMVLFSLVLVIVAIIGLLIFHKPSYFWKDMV

[8] = molecular target: T1, human CD39 expressed on the cell surface; assay: flow cytometry on purified human CD14+ monocytes, 0 uM ATP
[9] = molecular target: T1, human CD39 expressed on the cell surface; assay: flow cytometry on purified human CD14+ monocytes, 400 uM ATP
[10] = molecular target: T3, soluble His-tagged human CD39 ECD protein (human, UniProt P49961 38-478); assay: SPR (Biacore 8K), antibody captured via anti-human Fc, CD39 ECD analyte
T3 construct: also called human CD39 ECD His-tagged antigen; Sino Biological Cat. No. 16020-H08B
T3 sequence: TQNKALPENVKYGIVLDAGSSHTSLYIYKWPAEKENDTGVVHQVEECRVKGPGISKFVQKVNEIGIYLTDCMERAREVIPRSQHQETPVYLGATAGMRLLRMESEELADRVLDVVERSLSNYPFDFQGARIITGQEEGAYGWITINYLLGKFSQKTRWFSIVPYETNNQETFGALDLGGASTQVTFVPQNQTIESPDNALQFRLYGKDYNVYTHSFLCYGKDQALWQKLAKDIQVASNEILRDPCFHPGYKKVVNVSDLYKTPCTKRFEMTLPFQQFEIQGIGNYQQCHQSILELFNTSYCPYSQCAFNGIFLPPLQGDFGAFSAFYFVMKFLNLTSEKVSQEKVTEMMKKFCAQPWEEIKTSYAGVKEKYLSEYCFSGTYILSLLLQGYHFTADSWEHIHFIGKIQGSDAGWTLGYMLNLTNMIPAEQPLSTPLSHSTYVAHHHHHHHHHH

Human THP-1 CD39 inhibition IC50 [1]: 0.1 nM | IC50, CD39 enzymatic inhibition on SK-MEL-5 cells, 20 uM ATP [2]: 0.14 nM | Max Inhibition (%), SK-MEL-5 cells [2]: 66% | IC50, CD39 enzymatic inhibition on THP-1 cells, 20 uM ATP [3]: 0.062 nM | Max Inhibition (%), THP-1 cells [3]: 83% | IC50, CD39 enzymatic inhibition on human monocytes, 20 uM ATP [4]: 0.15 nM | Max Inhibition (%), human monocytes, 20 uM ATP [4]: 72% | IC50, CD39 enzymatic inhibition on human monocytes, 400 uM ATP [5]: 0.2 nM | Max Inhibition (%), human monocytes, 400 uM ATP [5]: 60% | EC50 [6]: 0.44 nM | EC50 [7]: 0.088 nM | EC50 [8]: 3.9 nM | EC50 [9]: 10 nM | Kd [10]: 0.121 nM
B1: hu39.5_IGG4.P (antibody, human IgG4 S228P, kappa)
heavy: not shown
light: DTVLTQSPASLAVSPGQRATITCRASEGVKSYMHWYQQKPGQPPKLLIYKASNLASGVPARFSGSGSGTDFTLTINPVEADDTANYYCQQSWNDPTFGQGTKLEIKRTVAAPSVFIFPPSDEQLKSGTASVVCLLNNFYPREAKVQWKVDNALQSGNSQESVTEQDSKDSTYSLSSTLTLSKADYEKHKVYACEVTHQGLSSPVTKSFNRGEC
notes: humanized variant of antibody 39 (VH3 + VL1 with I2T), IgG4 (S228P)
